Measurements reported in publication PMC9045712 (Science Advances, 2022).

Target: recombinant MCM2 (minichromosome maintenance protein 2), from 6x His-FLAG-TEV-MCM2 (mouse, UniProt P97310 1-904)
Experiment: co-IP

Sequence of recombinant MCM2 (minichromosome maintenance protein 2), from 6x His-FLAG-TEV-MCM2 (P97310 whole entry): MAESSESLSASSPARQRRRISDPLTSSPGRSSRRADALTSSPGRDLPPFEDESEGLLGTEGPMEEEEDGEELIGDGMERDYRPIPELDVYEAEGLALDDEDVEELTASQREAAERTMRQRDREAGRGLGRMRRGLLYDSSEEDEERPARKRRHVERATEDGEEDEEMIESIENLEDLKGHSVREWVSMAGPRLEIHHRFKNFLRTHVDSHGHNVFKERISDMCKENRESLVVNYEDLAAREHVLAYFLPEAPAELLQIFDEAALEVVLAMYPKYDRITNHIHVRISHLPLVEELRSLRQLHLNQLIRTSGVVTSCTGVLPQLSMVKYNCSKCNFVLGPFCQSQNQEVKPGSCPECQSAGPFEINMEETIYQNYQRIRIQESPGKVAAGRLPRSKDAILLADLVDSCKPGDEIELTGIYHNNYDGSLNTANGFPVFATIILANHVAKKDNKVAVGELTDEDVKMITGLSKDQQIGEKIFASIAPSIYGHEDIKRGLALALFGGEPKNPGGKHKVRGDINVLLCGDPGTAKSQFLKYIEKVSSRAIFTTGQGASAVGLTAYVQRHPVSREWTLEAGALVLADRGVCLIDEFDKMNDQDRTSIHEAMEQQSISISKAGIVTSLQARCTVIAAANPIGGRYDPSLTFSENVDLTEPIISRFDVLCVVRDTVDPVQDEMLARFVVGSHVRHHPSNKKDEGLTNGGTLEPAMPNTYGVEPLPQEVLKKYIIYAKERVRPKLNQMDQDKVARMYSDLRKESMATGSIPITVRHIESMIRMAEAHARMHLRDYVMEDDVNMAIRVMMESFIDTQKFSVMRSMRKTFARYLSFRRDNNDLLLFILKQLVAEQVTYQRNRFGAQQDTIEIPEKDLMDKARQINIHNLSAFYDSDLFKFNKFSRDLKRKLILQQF

B1: recombinant NPM1 (nucleophosmin), from 6x His-FLAG-TEV-NPM1 (natural protein)
chain: MEDSMDMDMSPLRPQNYLFGCELKADKDYHFKVDNDENEHQLSLRTVSLGAGAKDELHIVEAEAMNYEGSPIKVTLATLKMSVQPTVSLGGFEITPPVVLRLKCGSGPVHISGQHLVAVEEDAESEDEDEEDVKLLGMSGKRSAPGGGNKVPQKKVKLDEDDEDDDEDDEDDEDDDDDDFDEEETEEKVPVKKSVRDTPAKNAQKSNQNGKDLKPSTPRSKGQESFKKQEKTPKTPKGPSSVEDIKAKMQASIEKGGSLPKVEAKFINYVKNCFRMTDQEAIQDLWQWRKSL
B1: binds.
